Results on 167 variants are retold here after the RNAGym collection of RNA variant scans (doi:10.7554/elife.80360).

B1: Hairpin Ribozyme (parent)
chain: GUCCUCUUUCACGUGCGCGUGAAAGAGAGAAGUGAACCAGAGAAACACACGUUGUGGUAUAUUACCUGGUA

In this data set the parent is B1. Put plainly: self-cleavage, relative activity (ratio to wild type); higher = more cleavage; co-transcriptional.
For C10U A31C, the self-cleavage came out at 0.135.

Take C10U A47U: the self-cleavage was 0.109.

On to C10U A47C, for which the self-cleavage came out at 0.257. In the case of C10U A47G, the self-cleavage came to 0.169. Consider A11C A26G, for which the self-cleavage was 0.645.

On to C10G G42C, for which the self-cleavage is 0.307. On to C10G G42U, for which the self-cleavage is 0.214. To A11C C12U belongs 0.766.

Take A11C C12G: the self-cleavage was found to be 0.903. Consider C10U A36G, for which the self-cleavage was found to be 0.648. As to C10U A36C, the self-cleavage turned out to be 0.662. Next, A11C G40A: 0.318; A11C A41G: 0.701; C10U A26C: 0.687. In the case of C10G U58A, the self-cleavage is 0.591. To C10G U52G belongs 0.631. Regarding A11C C16G, the self-cleavage was 0.578. For A11C C16A, the self-cleavage was determined as 0.759. Next, A11C G25A: 0.504; A11C G25C: 0.457; A11C G32A: 0.179. Consider A11C G32U, for which the self-cleavage came to 0.063. For A11C A31G, the self-cleavage was 0.437. Regarding A11C A31U, the self-cleavage amounted to 0.18. On to C10U A30U, for which the self-cleavage stood at 0.12. On to A11C G21U, for which the self-cleavage was found to be 0.799.

In the case of C10G U70A, the self-cleavage worked out at 0.592.

Take C10G U70C: the self-cleavage came out at 0.93. As to C10U G68C, the self-cleavage worked out at 0.229. Next, C10G G51C: 0.585; C10G C48G: 0.0825. To C10U G69U belongs 0.217; to C10U G69A, 0.405; to C10U A41G, 0.765. Consider A11C A24G, for which the self-cleavage worked out at 0.539. With C10G U33C, the self-cleavage was 0.0987. With C10G U33G, the self-cleavage amounted to 0.25.

Consider C10U U62A, for which the self-cleavage stood at 0.234. For C10U A49U, the self-cleavage amounted to 0.0687. Consider C10U A61U, for which the self-cleavage was 0.246.

For C10G G56U, the self-cleavage was found to be 0.109. Regarding C10G G56C, the self-cleavage came out at 0.149. For C10G U63C, the self-cleavage stood at 0.104. C10G U63A: the self-cleavage came to 0.158. For the variant C10G U63G, the self-cleavage came out at 0.113.

With A11C A22C, the self-cleavage amounted to 0.803. As for A11C G13C, the self-cleavage was 0.503. Consider A11C G13U, for which the self-cleavage came to 0.717. For A11C C18U, the self-cleavage was 0.94.

With A11C C18G, the self-cleavage was determined as 0.775. Regarding A11G A23U, the self-cleavage was found to be 0.93. Turning to A11G A23C, the self-cleavage is 0.596. As for C10G G34C, the self-cleavage worked out at 1.08. In the case of C10G G25U, the self-cleavage worked out at 0.481. Take C10G G25A: the self-cleavage came to 0.211. Take A11C A35U: the self-cleavage was found to be 0.643. In the case of A11C A35G, the self-cleavage was 0.837.

Consider C10U U52C, for which the self-cleavage was found to be 0.949. Turning to C10U U52G, the self-cleavage stood at 0.564.

Take C10G C38G: the self-cleavage turned out to be 0.133. For C10G C38U, the self-cleavage is 0.435. A11C A39U: the self-cleavage amounted to 0.37. Next, C10U G54A: 0.561; C10U G54U: 0.452; A11C G56C: 0.108. To C10G G54A belongs 0.375; to A11C A28C, 0.481. Take A11G A28U: the self-cleavage was 0.447. Consider C10G G13C, for which the self-cleavage stood at 0.401. To A11C U53C belongs 0.681; to A11C G68U, 0.307; to A11G A30C, 0.146. To A11G A30G belongs 0.269. For A11C C38G, the self-cleavage came out at 0.0848.

Turning to C10U G25C, the self-cleavage was 0.487.

On to C10U A43C, for which the self-cleavage was found to be 0.189.

For the variant C10U A43G, the self-cleavage came out at 0.113. Next, C10U A11C: 0.696. With C10G U55A, the self-cleavage is 0.316.

On to C10G U55G, for which the self-cleavage amounted to 0.195.

For C10U U20G, the self-cleavage turned out to be 0.498. On to A11C C50G, for which the self-cleavage is 0.321. For the variant C10U G57C, the self-cleavage amounted to 0.187.

As for A11C A71G, the self-cleavage worked out at 0.902. With A11C A71U, the self-cleavage stood at 0.747.

A11C A71C: the self-cleavage worked out at 1.15. As to A11C U60A, the self-cleavage came to 0.716. A11C U60G: the self-cleavage was 0.714.

Regarding C10U U58C, the self-cleavage came to 0.771. Next, C10U U58G: 0.557; A11C A44C: 0.0983; A11C A44G: 0.197.

With A11G A35G, the self-cleavage amounted to 0.764. Regarding A11C G19A, the self-cleavage is 0.741. C10U A28G: the self-cleavage was 0.822. Turning to C10U G21U, the self-cleavage came to 0.815. To A11C G15U belongs 0.996; to C10G G40C, 0.122. For C10G U67G, the self-cleavage is 0.205.

Consider A11C G17U, for which the self-cleavage was 0.745. Turning to A11C G17C, the self-cleavage worked out at 0.745. With A11C U52A, the self-cleavage was 0.762. Take C10G C65A: the self-cleavage stood at 0.746.

As for A11C A61C, the self-cleavage was 0.24.

As for A11C G27U, the self-cleavage was found to be 0.365. To A11C G57U belongs 0.323.

With A11C U67A, the self-cleavage turned out to be 0.116. On to A11C U67G, for which the self-cleavage came out at 0.168. Turning to C10U G32C, the self-cleavage was 0.17. Turning to C10G U60C, the self-cleavage worked out at 0.815. With C10U A35C, the self-cleavage is 0.871. To C10U C38A belongs 0.157; to C10U C38G, 0.269; to C10U C38U, 0.387. On to C10G G17A, for which the self-cleavage came out at 0.676. Next, C10U C48A: 0.104; C10U C48G: 0.134. For the variant C10G G57C, the self-cleavage came out at 0.124.

As for C10G G57A, the self-cleavage was 0.0913. For the variant C10U U53A, the self-cleavage was 0.733.

Regarding C10U U53G, the self-cleavage was 0.725. Turning to A11C A47U, the self-cleavage worked out at 0.251. Regarding C10U G13A, the self-cleavage is 0.662. Consider C10G C46U, for which the self-cleavage came out at 0.0874. As for A11G A24C, the self-cleavage amounted to 0.746. As to A11C G54A, the self-cleavage was found to be 0.508. In the case of C10U U60C, the self-cleavage amounted to 0.992. Consider C10G U20C, for which the self-cleavage came out at 0.647. As to C10G U20G, the self-cleavage is 0.561. Take C10U G34A: the self-cleavage turned out to be 1.04.

Consider C10U A39C, for which the self-cleavage was determined as 0.458.

With A11C U55C, the self-cleavage was 0.183. For the variant A11C U55A, the self-cleavage turned out to be 0.448. For C10U G27C, the self-cleavage came out at 0.0988. Turning to C10U G27U, the self-cleavage amounted to 0.225. With C10U U55A, the self-cleavage came out at 0.213. For the variant C10U U55C, the self-cleavage was 0.337. With C10U U55G, the self-cleavage was 0.201.

Consider C10U A44C, for which the self-cleavage came to 0.135. On to A11C A43G, for which the self-cleavage came to 0.0792. To A11C A43C belongs 0. On to C10U C50U, for which the self-cleavage turned out to be 0.391. To C10U C50A belongs 0.18; to C10G C18A, 0.907; to C10G C18G, 0.621. As to C10U G17U, the self-cleavage came to 0.665. Consider C10G C37G, for which the self-cleavage came out at 0.372. C10G C37U: the self-cleavage was determined as 0.379. With A11C G51C, the self-cleavage was 0.8. In the case of A11C G51U, the self-cleavage is 1.13. In the case of C10G G19C, the self-cleavage was 0.539. Next, C10U C18A: 0.956; C10U C18U: 0.95. Next, C10U C12A: 0.574; A11C U14A: 0.533; A11C G42U: 0.214.

For C10G G68A, the self-cleavage worked out at 0.172. Take C10G G68U: the self-cleavage stood at 0.148. To C10U U63C belongs 0.102. Regarding A11C A30C, the self-cleavage was 0.147. As to A11C A30U, the self-cleavage came out at 0.177.

Consider C10G G15U, for which the self-cleavage turned out to be 0.851. For C10G G15A, the self-cleavage worked out at 0.624. Turning to C10G U14A, the self-cleavage worked out at 0.635. C10G U14G: the self-cleavage was 0.378. For the variant C10G U14C, the self-cleavage was found to be 0.573.

As to C10G U62G, the self-cleavage came to 0.138.
